Data: patent US11260115B1, “Peptides and combination of peptides for use in immunotherapy against CLL and other cancers” (immatics biotechnologies GmbH, priority 2015, dated 2022)

The substances below were run against HLA-A*02:01 (Homo sapiens, UniProt P04439, D140Y/D185E/D98H/E176V/E277Q/G131W/G231S/I119V/I121R/I166T/I218V/L300P/L318F/N151K/N90K/P208A/P217A/Q86G/Q94H/R138H/R169H/T345S) (assay: MHC binding assay (UV-ligand exchange, β2m ELISA, peptide exchange yield)). Conditions: binding to HLA-A*02:01.
Description: Candidate peptides for T cell based therapies according to the present invention were further tested for their MHC binding capacity (affinity). The individual peptide-MHC complexes were produced by UV-ligand exchange, where a UV-sensitive peptide is cleaved upon UV-irradiation, and exchanged with the peptide of interest as analyzed. Only peptide candidates that can effectively bind and stabilize the peptide-receptive MHC molecules prevent dissociation of the MHC complexes. To determine the yield of the exchange reaction, an ELISA was performed based on the detection of the light chain (β2m) of stabilized MHC complexes. The assay was performed as generally described in Rodenko et al. (Rodenko et al., 2006).
96 well MAXISorp plates (NUNC) were coated over night with 2 ug/ml streptavidin in PBS at room temperature, washed 4× and blocked for 1 h at 37° C. in 2% BSA containing blocking buffer. Refolded HLA-A*02:01/MLA-001 monomers served as standards, covering the range of 15-500 ng/ml. Peptide-MHC monomers of the UV-exchange reaction were diluted 100 fold in blocking buffer. Samples were incubated for 1 h at 37° C., washed four times, incubated with 2 ug/ml HRP conjugated anti-β2m for 1 h at 37° C., washed again and detected with TMB solution that is stopped with […]. Absorption was measured at 450 nm. Candidate peptides that show a high exchange yield (preferably higher than 50%, most preferred higher than 75%) are generally preferred for a generation and production of antibodies or fragments thereof, and/or T cell receptors or fragments thereof, as they show sufficient avidity to the MHC molecules and prevent dissociation of the MHC complexes.
Table 11: MHC class I binding scores. Binding of HLA-class I restricted peptides to HLA-A*02:01 was ranged by peptide exchange yield: ≥10%=+; ≥20%=++; ≥50=+++; ≥75%=++++
With “135 (MTAGFSTIAGSV; listed as Homo sapiens) [compound 135]” the “Peptide Exchange (MHC class I binding score, peptide exchange yield)” value (“Peptide Exchange” below) was ““+” (>10% = +)”. With “63 (SLAHVAGCEL; listed as Homo sapiens) [compound 63]” the “Peptide Exchange” value was ““+++” (>50 = +++)”. With “278 (YLDDLLPKL; listed as Homo sapiens) [compound 278]” the “Peptide Exchange” value was ““+++” (>50 = +++)”. For “146 (SIIEGPIIKL; listed as Homo sapiens) [compound 146]”, the “Peptide Exchange” value was ““+++” (>50 = +++)”. “37 (FIMEGGAMVL; listed as Homo sapiens) [compound 37]” was tested, and the “Peptide Exchange” value was ““++++” (>75% = ++++)”. “124 (LLLEETEKQAV; listed as Homo sapiens) [compound 124]” was tested, and the “Peptide Exchange” value was ““+++” (>50 = +++)”. In the case of “25 (ATYSGLESQSV; listed as Homo sapiens) [compound 25]”, the “Peptide Exchange” value is reported as ““++” (>20% = ++)”. “61 (FVYFIVREV; listed as Homo sapiens) [compound 61]” was tested, and the “Peptide Exchange” value was ““+++” (>50 = +++)”. For “5 (ALIFKIASA; listed as Homo sapiens) [compound 5]”, the “Peptide Exchange” value was ““+++” (>50 = +++)”. With “159 (SLQEEKLIYV; listed as Homo sapiens) [compound 159]” the “Peptide Exchange” value was ““+++” (>50 = +++)”. “223 (ALWVSQPPEI; listed as Homo sapiens) [compound 223]” was tested, and the “Peptide Exchange” value was ““+++” (>50 = +++)”. For “267 (TLLDWQDSL; listed as Homo sapiens) [compound 267]”, the “Peptide Exchange” value was ““+++” (>50 = +++)”. “228 (FLGGLSPGV; listed as Homo sapiens) [compound 228]” was tested, and the “Peptide Exchange” value was ““+++” (>50 = +++)”. “11 (ALFTFSPLTV; listed as Homo sapiens) [compound 11]” was tested, and the “Peptide Exchange” value was ““+++” (>50 = +++)”. In the case of “308 (SLYDVSRMYV; listed as Homo sapiens) [compound 308]”, the “Peptide Exchange” value is reported as ““++++” (>75% = ++++)”. In the case of “143 (QLLDTYFTL; listed as Homo sapiens) [compound 143]”, the “Peptide Exchange” value is reported as ““+++” (>50 = +++)”. With “319 (QVIPQLQTV; listed as Homo sapiens) [compound 319]” the “Peptide Exchange” value was ““+++” (>50 = +++)”. “169 (TLLLGLTEV; listed as Homo sapiens) [compound 169]” was tested, and the “Peptide Exchange” value was ““+++” (>50 = +++)”. With “208 (ILLKTEGINL; listed as Homo sapiens) [compound 208]” the “Peptide Exchange” value was ““+++” (>50 = +++)”. In the case of “335 (YLYQEQYFI; listed as Homo sapiens) [compound 335]”, the “Peptide Exchange” value is reported as ““+++” (>50 = +++)”. For “71 (GLKHDIARV; listed as Homo sapiens) [compound 71]”, the “Peptide Exchange” value was ““+++” (>50 = +++)”. In the case of “199 (YLVELSSLL; listed as Homo sapiens) [compound 199]”, the “Peptide Exchange” value is reported as ““++++” (>75% = ++++)”. For “341 (LLAELPASVHA; listed as Homo sapiens) [compound 341]”, the “Peptide Exchange” value was ““+++” (>50 = +++)”. “371 (SLADDSVLERL; listed as Homo sapiens) [compound 371]” was tested, and the “Peptide Exchange” value was ““+++” (>50 = +++)”. With “177 (VLDDRELLL; listed as Homo sapiens) [compound 177]” the “Peptide Exchange” value was ““+++” (>50 = +++)”. For “385 (YTIPLAIKL; listed as Homo sapiens) [compound 385]”, the “Peptide Exchange” value was ““+++” (>50 = +++)”. For “149 (SLDNGGYYI; listed as Homo sapiens) [compound 149]”, the “Peptide Exchange” value was ““+++” (>50 = +++)”. For “264 (TILDYINVV; listed as Homo sapiens) [compound 264]”, the “Peptide Exchange” value was ““+++” (>50 = +++)”. For “225 (ILQERELLPV; listed as Homo sapiens) [compound 225]”, the “Peptide Exchange” value was ““+++” (>50 = +++)”. For “238 (GLVETELQL; listed as Homo sapiens) [compound 238]”, the “Peptide Exchange” value was ““+++” (>50 = +++)”. With “378 (YILGKFFAL; listed as Homo sapiens) [compound 378]” the “Peptide Exchange” value was ““+++” (>50 = +++)”. “40 (FLDEDDMSL; listed as Homo sapiens) [compound 40]” was tested, and the “Peptide Exchange” value was ““++” (>20% = ++)”. With “310 (LLSTLHLLV; listed as Homo sapiens) [compound 310]” the “Peptide Exchange” value was ““+++” (>50 = +++)”. With “229 (FLLNLQNCHL; listed as Homo sapiens) [compound 229]” the “Peptide Exchange” value was ““++++” (>75% = ++++)”. For “10 (FVYGESVEL; listed as Homo sapiens) [compound 10]”, the “Peptide Exchange” value was ““+++” (>50 = +++)”. “285 (GVATAGCVNEV; listed as Homo sapiens) [compound 285]” was tested, and the “Peptide Exchange” value was ““++++” (>75% = ++++)”. With “372 (SLFGPLPGPGPALV; listed as Homo sapiens) [compound 372]” the “Peptide Exchange” value was ““+++” (>50 = +++)”. In the case of “178 (VLFFNVQEV; listed as Homo sapiens) [compound 178]”, the “Peptide Exchange” value is reported as ““+++” (>50 = +++)”. For “167 (TLDTSKLYV; listed as Homo sapiens) [compound 167]”, the “Peptide Exchange” value was ““+++” (>50 = +++)”. “295 (ALLQKLQQL; listed as Homo sapiens) [compound 295]” was tested, and the “Peptide Exchange” value was ““+++” (>50 = +++)”. In the case of “209 (ILQAELPSL; listed as Homo sapiens) [compound 209]”, the “Peptide Exchange” value is reported as ““+++” (>50 = +++)”. In the case of “98 (SLIKYFLFV; listed as Homo sapiens) [compound 98]”, the “Peptide Exchange” value is reported as ““+” (>10% = +)”. With “191 (YIFDGSDGGV; listed as Homo sapiens) [compound 191]” the “Peptide Exchange” value was ““+++” (>50 = +++)”. With “130 (LLVLIPVYL; listed as Homo sapiens) [compound 130]” the “Peptide Exchange” value was ““+” (>10% = +)”. “356 (FLHDHQAEL; listed as Homo sapiens) [compound 356]” was tested, and the “Peptide Exchange” value was ““++” (>20% = ++)”. “206 (HMQDVRVLL; listed as Homo sapiens) [compound 206]” was tested, and the “Peptide Exchange” value was ““+++” (>50 = +++)”. For “312 (LLYNSTDPTL; listed as Homo sapiens) [compound 312]”, the “Peptide Exchange” value was ““+++” (>50 = +++)”. “348 (ALAKPPVVSV; listed as Homo sapiens) [compound 348]” was tested, and the “Peptide Exchange” value was ““+++” (>50 = +++)”. With “291 (ILLNEDDLVTI; listed as Homo sapiens) [compound 291]” the “Peptide Exchange” value was ““+++” (>50 = +++)”. In the case of “67 (GLDDVTVEV; listed as Homo sapiens) [compound 67]”, the “Peptide Exchange” value is reported as ““++” (>20% = ++)”. With “127 (LLPTAPTTV; listed as Homo sapiens) [compound 127]” the “Peptide Exchange” value was ““+++” (>50 = +++)”. In the case of “7 (ALLERTGYTL; listed as Homo sapiens) [compound 7]”, the “Peptide Exchange” value is reported as ““+++” (>50 = +++)”. For “321 (RLLEFELAQL; listed as Homo sapiens) [compound 321]”, the “Peptide Exchange” value was ““+++” (>50 = +++)”. “313 (LMADLEGLHL; listed as Homo sapiens) [compound 313]” was tested, and the “Peptide Exchange” value was ““+++” (>50 = +++)”. With “354 (FIMDDPAGNSYL; listed as Homo sapiens) [compound 354]” the “Peptide Exchange” value was ““+++” (>50 = +++)”. For “52 (FLVETGFLHV; listed as Homo sapiens) [compound 52]”, the “Peptide Exchange” value was ““++++” (>75% = ++++)”. In the case of “55 (FMEPTLLML; listed as Homo sapiens) [compound 55]”, the “Peptide Exchange” value is reported as ““+++” (>50 = +++)”. “269 (TLTDEQFLV; listed as Homo sapiens) [compound 269]” was tested, and the “Peptide Exchange” value was ““++” (>20% = ++)”. With “236 (GLLESGRHYL; listed as Homo sapiens) [compound 236]” the “Peptide Exchange” value was ““+++” (>50 = +++)”. “282 (LLRDGIELV; listed as Homo sapiens) [compound 282]” was tested, and the “Peptide Exchange” value was ““+++” (>50 = +++)”.
